{"source": "paper PMC5830917", "about": "(The EMBO Journal, 2018)", "binders": {"B1": {"name": "mCherry-p62 PB1 (1–102) (domain or fragment, UniProt Q13501 1-102, looked up)", "chain": "MASLTVKAYLLGKEDAAREIRRFSFCCSPEPEAEAEAAAGPGPCERLLSRVAALFPALRPGGFQAHYRDEDGDLVAFSSDEELTMAMSYVKDDIFRIYIKEK", "notes": "p62/SQSTM1, PB1 domain, residues 1-102; also called isolated PB1 domain of p62; source: recombinant, purified; site-directed mutagenesis on the plasmid for the full-length protein (pET-mCherry-p62 PB1); not shown: mCherry, N-terminal, kept"}}, "target": "T1, GFP-NBR1 (human, UniProt Q14596-1 1-966)", "T1 construct": "NBR1, human, ORF amplified from a HeLa cDNA library; The TEV site lies between StrepII and GFP, so the cleaved protein keeps GFP; also called 6xHis‐Strep‐TEV‐GFP‐NBR1; Strep‐TEV‐GFP‐NBR1; source: Sf9 insect cells (Bac-to-Bac), purified (HisTrap, TEV cleavage, Superose6); not shown: His6, N-terminal, cleaved; StrepII, N-terminal, cleaved; GFP (meGFP, A206K), N-terminal, kept", "T1 sequence (looked up)": "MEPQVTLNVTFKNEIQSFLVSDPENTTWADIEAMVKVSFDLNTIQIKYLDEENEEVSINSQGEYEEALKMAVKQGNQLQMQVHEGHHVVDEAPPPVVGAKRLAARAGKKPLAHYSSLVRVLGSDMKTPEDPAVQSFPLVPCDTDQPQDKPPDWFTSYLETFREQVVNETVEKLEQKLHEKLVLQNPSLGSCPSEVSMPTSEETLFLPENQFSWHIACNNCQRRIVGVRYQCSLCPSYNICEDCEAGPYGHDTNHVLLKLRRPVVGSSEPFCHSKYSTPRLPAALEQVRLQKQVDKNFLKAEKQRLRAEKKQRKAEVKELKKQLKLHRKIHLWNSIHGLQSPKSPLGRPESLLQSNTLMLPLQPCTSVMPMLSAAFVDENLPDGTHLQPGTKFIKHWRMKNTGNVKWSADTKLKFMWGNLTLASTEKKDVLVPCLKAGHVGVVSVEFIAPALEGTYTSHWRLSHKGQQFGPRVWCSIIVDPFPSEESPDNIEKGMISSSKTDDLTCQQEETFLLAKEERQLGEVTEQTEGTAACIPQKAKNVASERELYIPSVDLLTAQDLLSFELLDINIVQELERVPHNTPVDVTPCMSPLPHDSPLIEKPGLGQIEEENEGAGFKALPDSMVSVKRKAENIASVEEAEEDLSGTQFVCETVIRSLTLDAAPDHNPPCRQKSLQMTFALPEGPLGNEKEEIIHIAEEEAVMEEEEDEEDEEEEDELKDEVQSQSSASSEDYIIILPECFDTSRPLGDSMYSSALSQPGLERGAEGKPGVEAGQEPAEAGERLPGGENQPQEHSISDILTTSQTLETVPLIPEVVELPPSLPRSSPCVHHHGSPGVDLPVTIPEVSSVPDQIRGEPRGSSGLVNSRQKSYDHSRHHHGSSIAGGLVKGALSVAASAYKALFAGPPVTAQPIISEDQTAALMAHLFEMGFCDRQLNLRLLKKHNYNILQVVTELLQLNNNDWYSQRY", "experiment": "microscopy-based protein-protein interaction assay on beads; GFP-NBR1 on GFP-TRAP beads; 2 μM mCherry-p62 variants at equilibrium in 25 mM HEPES pH 7.5, 150 mM NaCl, 1 mM DTT; spinning disk imaging", "conditions": "both partners purified"}
{"binder": "B1", "values": [{"measurement": "binding result", "result": "binds"}]}
